From patent publication US20260125472A1 (HEFEI TG IMMUNOPHARMA, published 2026) come the findings set out here.

For one experiment, the target named is T1, Trop2 protein (UniProt P09758 27-274).
T1 construct: Bought recombinant protein; also called Trop2-Biotin protein (biotin-labelled, bridging ELISA)
T1 sequence (looked up): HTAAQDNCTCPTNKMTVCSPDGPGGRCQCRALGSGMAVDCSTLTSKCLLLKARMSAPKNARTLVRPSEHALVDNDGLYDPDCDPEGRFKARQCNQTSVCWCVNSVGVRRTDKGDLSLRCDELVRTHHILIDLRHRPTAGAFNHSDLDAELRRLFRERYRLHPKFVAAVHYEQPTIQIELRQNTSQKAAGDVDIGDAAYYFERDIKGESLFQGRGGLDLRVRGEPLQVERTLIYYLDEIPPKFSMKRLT
The experiment is described as follows: ELISA, coated Trop2 protein, OD450. An excerpt:
In this example, the binding properties of the CD3×Trop2 and CD3×PDL1 bispecific antibody (the production method and the amino acid sequences of the heavy and light chains were shown in Example 1) were detected by using ELISA. The CD3E&D, Trop2, or PDL1 protein was coated onto 96-well plates by inventors, and the strength of the signal after the addition of the antibody was used to determine the binding properties of the antibody and the corresponding protein.
(2) Trop2 protein (purchased from Acro) was diluted to 2 μg/ml with PBS buffer, added to a 96-well plate at a volume of 100 μL/well, and placed at 4° C. overnight. The PBS buffer in the 96-well plate was aspirated, and the plate was washed 6 times with PBST (pH 7.2 PBS containing 0.1% Tween 20) buffer. Then, 200 μL/well PBS/10% BSA was added and incubated at 37° C. for 2 h for blocking. The blocking solution was removed, and the plate was washed six times with PBST. Then, the to-be-tested bispecific antibodies, Cross3×Trop2, Cross303×Trop2, Cross307×Trop2, Cross308×Trop2, Cross309×Trop2, Cross310×Trop2, Cross311×Trop2, Cross312×Trop2, Cross313×Trop2, Cross314×Trop2, Cross316×Trop2, Cross317×Trop2, Cross318×Trop2, Cross323×Trop2, Cross325×Trop2, Cross326×Trop2, and control IgG1LALA (purchased from Bio-Tech), serially diluted with PBST/0.05% BSA, were added at 100 μL/well and incubated at 37° C. for 1 h. The reaction system was removed, and the plate was washed 6 times with PBST. Then, HRP (horseradish peroxidase)-labeled anti-human secondary antibody (Fab specific) (purchased from Sigma) diluted with PBST/0.05% BSA at 100 μL/well. After the plate was washed six times with PBST, TMB (tetramethylbenzidine) was added at 80 μL/well, and incubated at room temperature for 3 min. 4 M sulfuric acid was added at 80 μL/well to terminate the reaction. The absorbance was read at 450 nm using a microplate reader.

Experiment [1] has as its target T2, Trop2 on A-375-Trop2 melanoma cells (UniProt P09758 27-323, limits assumed).
T2 construct: whole, on cells
T2 sequence (looked up): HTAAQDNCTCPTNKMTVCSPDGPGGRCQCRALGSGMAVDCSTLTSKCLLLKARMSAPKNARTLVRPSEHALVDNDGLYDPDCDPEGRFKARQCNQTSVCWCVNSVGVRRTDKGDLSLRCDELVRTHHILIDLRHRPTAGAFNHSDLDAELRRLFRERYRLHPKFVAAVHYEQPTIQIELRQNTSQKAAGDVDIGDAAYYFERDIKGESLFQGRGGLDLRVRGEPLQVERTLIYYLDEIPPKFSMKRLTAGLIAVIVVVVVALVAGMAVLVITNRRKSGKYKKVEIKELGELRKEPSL
Nature of the experiment: flow cytometry, A-375-Trop2 cells, MFI [panel B]. The method, then:
(2) The tumor cells were diluted to 2×10⁶/ml with PBS and added to a 1.5 ml EP tube at a volume of 100 μl/tube, and goat serum was added thereto at 10 μl/tube. The cells were blocked at 4° C. for 30 min. The serially diluted bispecific antibodies, Cross3×Trop2, Cross303×Trop2, Cross307×Trop2, Cross308×Trop2, Cross309×Trop2, Cross310×Trop2, Cross311×Trop2, Cross312×Trop2, Cross313×Trop2, Cross314×Trop2, Cross316×Trop2, Cross317×Trop2, Cross318×Trop2, Cross323×Trop2, Cross325×Trop2, Cross326×Trop2, and Cross3×PDL1, Cross303×PDL1, Cross307×PDL1, Cross308×PDL1, Cross309×PDL1, Cross310×PDL1, Cross311×PDL1, Cross312×PDL1, Cross313×PDL1, Cross314×PDL1, Cross316×PDL1, Cross317×PDL1, Cross318×PDL1, Cross323×PDL1, Cross325×PDL1, Cross326×PDL1, and control hIgG1LALA (purchased from Bio-Tech) were added and incubated at 4° C. for 30 min. 1 ml of PBS was added to the EP tube, followed by centrifugation at 3500 rpm for 5 min at 4° C. The supernatant was discarded, and the cells were washed again with PBS. After centrifugation, the supernatant was completely discarded, and the cells were resuspended with PBS at 100 μl/tube. Alexa-647-labeled goat anti-human IgG secondary antibody (purchased from Jackson lab) was added at 1 μl/tube and incubated at 4° C. in the dark for 30 min. The cells were washed twice with PBS, and the supernatant was completely discarded after centrifugation. The cells were resuspended with PBS at 200 μl/tube and assay was performed using the flow cytometry.

B1: Cross308×Trop2 (bispecific antibody)
scFv: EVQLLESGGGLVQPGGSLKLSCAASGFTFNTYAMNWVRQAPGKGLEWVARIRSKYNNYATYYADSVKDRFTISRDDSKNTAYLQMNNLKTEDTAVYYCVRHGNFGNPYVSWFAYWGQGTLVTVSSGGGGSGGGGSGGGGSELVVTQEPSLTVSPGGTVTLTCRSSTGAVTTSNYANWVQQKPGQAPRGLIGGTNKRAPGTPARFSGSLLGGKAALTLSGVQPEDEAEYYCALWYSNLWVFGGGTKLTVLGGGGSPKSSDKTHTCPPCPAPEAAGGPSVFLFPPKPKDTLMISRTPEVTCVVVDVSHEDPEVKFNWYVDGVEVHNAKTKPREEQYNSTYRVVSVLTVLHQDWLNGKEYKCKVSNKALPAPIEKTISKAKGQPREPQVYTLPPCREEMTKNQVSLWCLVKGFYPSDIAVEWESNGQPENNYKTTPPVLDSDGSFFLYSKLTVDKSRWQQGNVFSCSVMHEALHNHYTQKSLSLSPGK
heavy: QVQLQQSGSELKKPGASVKVSCKASGYTFTNYGMNWVKQAPGQGLKWMGWINTYTGEPTYTDDFKGRFAFSLDTSVSTAYLQISSLKADDTAVYFCARGGFGSSYWYFDVWGQGSLVTVSSASTKGPSVFPLAPSSKSTSGGTAALGCLVKDYFPEPVTVSWNSGALTSGVHTFPAVLQSSGLYSLSSVVTVPSSSLGTQTYICNVNHKPSNTKVDKKVEPKSSDKTHTCPPCPAPEAAGGPSVFLFPPKPKDTLMISRTPEVTCVVVDVSHEDPEVKFNWYVDGVEVHNAKTKPREEQYNSTYRVVSVLTVLHQDWLNGKEYKCKVSNKALPAPIEKTISKAKGQPREPQVCTLPPSREEMTKNQVSLSCAVKGFYPSDIAVEWESNGQPENNYKTTPPVLDSDGSFFLVSKLTVDKSRWQQGNVFSCSVMHEALHNHYTQKSLSLSPGK
light: DIQLTQSPSSLSASVGDRVSITCKASQDVSIAVAWYQQKPGKAPKLLIYSASYRYTGVPDRFSGSGSGTDFTLTISSLQPEDFAVYYCQQHYITPLTFGAGTKVEIKRTVAAPSVFIFPPSDEQLKSGTASVVCLLNNFYPREAKVQWKVDNALQSGNSQESVTEQDSKDSTYSLSSTLTLSKADYEKHKVYACEVTHQGLSSPVTKSFNRGEC
On to B1, for which the figures for the “EC50 (read off the curve)” value (with Trop2 protein; in experiment [1]) were ~0.008 µg/mL and ~1 µg/mL, respectively.

B2: Cross312×Trop2 (bispecific antibody)
scFv: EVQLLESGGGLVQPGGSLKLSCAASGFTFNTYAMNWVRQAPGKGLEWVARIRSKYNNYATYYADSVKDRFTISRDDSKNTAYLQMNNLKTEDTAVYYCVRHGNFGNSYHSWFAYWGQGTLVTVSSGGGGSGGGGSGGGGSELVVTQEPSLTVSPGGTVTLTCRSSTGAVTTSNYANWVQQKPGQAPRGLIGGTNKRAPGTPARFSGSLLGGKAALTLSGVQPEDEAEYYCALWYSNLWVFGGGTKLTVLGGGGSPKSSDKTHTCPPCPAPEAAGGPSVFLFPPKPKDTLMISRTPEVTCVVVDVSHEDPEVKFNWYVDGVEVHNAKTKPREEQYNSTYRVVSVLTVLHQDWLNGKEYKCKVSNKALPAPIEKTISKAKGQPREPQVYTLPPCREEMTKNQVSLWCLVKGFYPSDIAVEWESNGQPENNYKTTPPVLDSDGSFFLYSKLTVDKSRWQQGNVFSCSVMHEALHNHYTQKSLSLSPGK
heavy: QVQLQQSGSELKKPGASVKVSCKASGYTFTNYGMNWVKQAPGQGLKWMGWINTYTGEPTYTDDFKGRFAFSLDTSVSTAYLQISSLKADDTAVYFCARGGFGSSYWYFDVWGQGSLVTVSSASTKGPSVFPLAPSSKSTSGGTAALGCLVKDYFPEPVTVSWNSGALTSGVHTFPAVLQSSGLYSLSSVVTVPSSSLGTQTYICNVNHKPSNTKVDKKVEPKSSDKTHTCPPCPAPEAAGGPSVFLFPPKPKDTLMISRTPEVTCVVVDVSHEDPEVKFNWYVDGVEVHNAKTKPREEQYNSTYRVVSVLTVLHQDWLNGKEYKCKVSNKALPAPIEKTISKAKGQPREPQVCTLPPSREEMTKNQVSLSCAVKGFYPSDIAVEWESNGQPENNYKTTPPVLDSDGSFFLVSKLTVDKSRWQQGNVFSCSVMHEALHNHYTQKSLSLSPGK
light: DIQLTQSPSSLSASVGDRVSITCKASQDVSIAVAWYQQKPGKAPKLLIYSASYRYTGVPDRFSGSGSGTDFTLTISSLQPEDFAVYYCQQHYITPLTFGAGTKVEIKRTVAAPSVFIFPPSDEQLKSGTASVVCLLNNFYPREAKVQWKVDNALQSGNSQESVTEQDSKDSTYSLSSTLTLSKADYEKHKVYACEVTHQGLSSPVTKSFNRGEC
B2: the “EC50 (read off the curve)” value is ~0.008 µg/mL with Trop2 protein and ~1 µg/mL in experiment [1].

B3: Cross310×Trop2 (bispecific antibody)
scFv: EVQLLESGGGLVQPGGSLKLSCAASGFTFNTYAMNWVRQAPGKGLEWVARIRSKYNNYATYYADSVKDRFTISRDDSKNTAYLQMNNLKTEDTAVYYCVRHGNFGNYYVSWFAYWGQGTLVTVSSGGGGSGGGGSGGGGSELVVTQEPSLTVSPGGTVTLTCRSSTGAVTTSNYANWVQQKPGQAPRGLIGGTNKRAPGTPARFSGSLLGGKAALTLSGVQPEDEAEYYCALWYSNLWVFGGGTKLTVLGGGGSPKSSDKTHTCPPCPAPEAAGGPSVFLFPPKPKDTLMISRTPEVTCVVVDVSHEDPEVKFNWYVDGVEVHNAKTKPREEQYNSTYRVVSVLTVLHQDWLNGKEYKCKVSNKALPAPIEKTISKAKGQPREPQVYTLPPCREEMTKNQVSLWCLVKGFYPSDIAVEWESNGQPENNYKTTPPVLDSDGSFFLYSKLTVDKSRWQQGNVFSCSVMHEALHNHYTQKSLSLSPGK
heavy: QVQLQQSGSELKKPGASVKVSCKASGYTFTNYGMNWVKQAPGQGLKWMGWINTYTGEPTYTDDFKGRFAFSLDTSVSTAYLQISSLKADDTAVYFCARGGFGSSYWYFDVWGQGSLVTVSSASTKGPSVFPLAPSSKSTSGGTAALGCLVKDYFPEPVTVSWNSGALTSGVHTFPAVLQSSGLYSLSSVVTVPSSSLGTQTYICNVNHKPSNTKVDKKVEPKSSDKTHTCPPCPAPEAAGGPSVFLFPPKPKDTLMISRTPEVTCVVVDVSHEDPEVKFNWYVDGVEVHNAKTKPREEQYNSTYRVVSVLTVLHQDWLNGKEYKCKVSNKALPAPIEKTISKAKGQPREPQVCTLPPSREEMTKNQVSLSCAVKGFYPSDIAVEWESNGQPENNYKTTPPVLDSDGSFFLVSKLTVDKSRWQQGNVFSCSVMHEALHNHYTQKSLSLSPGK
light: DIQLTQSPSSLSASVGDRVSITCKASQDVSIAVAWYQQKPGKAPKLLIYSASYRYTGVPDRFSGSGSGTDFTLTISSLQPEDFAVYYCQQHYITPLTFGAGTKVEIKRTVAAPSVFIFPPSDEQLKSGTASVVCLLNNFYPREAKVQWKVDNALQSGNSQESVTEQDSKDSTYSLSSTLTLSKADYEKHKVYACEVTHQGLSSPVTKSFNRGEC
Regarding B3, the half-maximal effective concentration (EC50 (read off the curve)) in the experiment with Trop2 protein is ~0.008 µg/mL; in experiment [1] it was ~1 µg/mL.

B4: Cross309×Trop2 (bispecific antibody)
scFv: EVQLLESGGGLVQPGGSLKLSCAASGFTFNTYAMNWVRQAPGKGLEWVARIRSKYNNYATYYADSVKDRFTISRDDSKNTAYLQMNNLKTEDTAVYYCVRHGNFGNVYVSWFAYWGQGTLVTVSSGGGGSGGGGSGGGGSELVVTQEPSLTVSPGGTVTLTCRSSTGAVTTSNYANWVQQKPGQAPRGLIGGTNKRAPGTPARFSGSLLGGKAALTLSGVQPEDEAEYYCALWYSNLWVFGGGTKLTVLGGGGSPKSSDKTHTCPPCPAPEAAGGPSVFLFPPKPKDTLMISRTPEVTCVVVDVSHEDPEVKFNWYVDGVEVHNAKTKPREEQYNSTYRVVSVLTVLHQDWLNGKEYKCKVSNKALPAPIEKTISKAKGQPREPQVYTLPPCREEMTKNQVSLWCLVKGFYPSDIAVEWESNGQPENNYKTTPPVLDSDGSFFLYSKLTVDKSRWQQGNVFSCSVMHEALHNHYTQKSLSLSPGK
heavy: QVQLQQSGSELKKPGASVKVSCKASGYTFTNYGMNWVKQAPGQGLKWMGWINTYTGEPTYTDDFKGRFAFSLDTSVSTAYLQISSLKADDTAVYFCARGGFGSSYWYFDVWGQGSLVTVSSASTKGPSVFPLAPSSKSTSGGTAALGCLVKDYFPEPVTVSWNSGALTSGVHTFPAVLQSSGLYSLSSVVTVPSSSLGTQTYICNVNHKPSNTKVDKKVEPKSSDKTHTCPPCPAPEAAGGPSVFLFPPKPKDTLMISRTPEVTCVVVDVSHEDPEVKFNWYVDGVEVHNAKTKPREEQYNSTYRVVSVLTVLHQDWLNGKEYKCKVSNKALPAPIEKTISKAKGQPREPQVCTLPPSREEMTKNQVSLSCAVKGFYPSDIAVEWESNGQPENNYKTTPPVLDSDGSFFLVSKLTVDKSRWQQGNVFSCSVMHEALHNHYTQKSLSLSPGK
light: DIQLTQSPSSLSASVGDRVSITCKASQDVSIAVAWYQQKPGKAPKLLIYSASYRYTGVPDRFSGSGSGTDFTLTISSLQPEDFAVYYCQQHYITPLTFGAGTKVEIKRTVAAPSVFIFPPSDEQLKSGTASVVCLLNNFYPREAKVQWKVDNALQSGNSQESVTEQDSKDSTYSLSSTLTLSKADYEKHKVYACEVTHQGLSSPVTKSFNRGEC
For the molecule B4, the “EC50 (read off the curve)” value is ~0.008 µg/mL with Trop2 protein and ~1 µg/mL in experiment [1].

B5: Cross313×Trop2 (bispecific antibody)
scFv: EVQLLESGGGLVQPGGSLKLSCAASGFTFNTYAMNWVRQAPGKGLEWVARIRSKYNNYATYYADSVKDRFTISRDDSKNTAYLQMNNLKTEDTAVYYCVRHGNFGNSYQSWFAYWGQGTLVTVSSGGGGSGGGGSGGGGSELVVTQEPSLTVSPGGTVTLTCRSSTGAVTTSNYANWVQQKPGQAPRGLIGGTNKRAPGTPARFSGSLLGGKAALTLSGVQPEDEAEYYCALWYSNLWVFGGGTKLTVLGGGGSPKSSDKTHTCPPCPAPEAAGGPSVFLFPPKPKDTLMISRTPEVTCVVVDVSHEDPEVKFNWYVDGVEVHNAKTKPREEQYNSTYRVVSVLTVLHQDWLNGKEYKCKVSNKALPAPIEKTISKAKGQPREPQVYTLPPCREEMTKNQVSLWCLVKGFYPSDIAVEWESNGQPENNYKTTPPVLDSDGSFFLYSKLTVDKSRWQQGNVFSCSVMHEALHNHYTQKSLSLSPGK
heavy: QVQLQQSGSELKKPGASVKVSCKASGYTFTNYGMNWVKQAPGQGLKWMGWINTYTGEPTYTDDFKGRFAFSLDTSVSTAYLQISSLKADDTAVYFCARGGFGSSYWYFDVWGQGSLVTVSSASTKGPSVFPLAPSSKSTSGGTAALGCLVKDYFPEPVTVSWNSGALTSGVHTFPAVLQSSGLYSLSSVVTVPSSSLGTQTYICNVNHKPSNTKVDKKVEPKSSDKTHTCPPCPAPEAAGGPSVFLFPPKPKDTLMISRTPEVTCVVVDVSHEDPEVKFNWYVDGVEVHNAKTKPREEQYNSTYRVVSVLTVLHQDWLNGKEYKCKVSNKALPAPIEKTISKAKGQPREPQVCTLPPSREEMTKNQVSLSCAVKGFYPSDIAVEWESNGQPENNYKTTPPVLDSDGSFFLVSKLTVDKSRWQQGNVFSCSVMHEALHNHYTQKSLSLSPGK
light: DIQLTQSPSSLSASVGDRVSITCKASQDVSIAVAWYQQKPGKAPKLLIYSASYRYTGVPDRFSGSGSGTDFTLTISSLQPEDFAVYYCQQHYITPLTFGAGTKVEIKRTVAAPSVFIFPPSDEQLKSGTASVVCLLNNFYPREAKVQWKVDNALQSGNSQESVTEQDSKDSTYSLSSTLTLSKADYEKHKVYACEVTHQGLSSPVTKSFNRGEC
For B5, the “EC50 (read off the curve)” value with Trop2 protein is ~0.008 µg/mL; in experiment [1], ~1 µg/mL.
